These results are taken from patent US20240390506A1 (SUZHOU FUSE BIOSCIENCES, published 2024).

Numbering of substitutions follows the chain as printed.

This assay addresses T1, human Fibroblast Activation Protein (FAP), soluble recombinant antigen (human, UniProt Q12884 26-760, biotinylated for BLI and panning (sites not given)).
T1 construct: also called biotinylated FAP (Sino Biological); soluble FAP antigen
T1 sequence: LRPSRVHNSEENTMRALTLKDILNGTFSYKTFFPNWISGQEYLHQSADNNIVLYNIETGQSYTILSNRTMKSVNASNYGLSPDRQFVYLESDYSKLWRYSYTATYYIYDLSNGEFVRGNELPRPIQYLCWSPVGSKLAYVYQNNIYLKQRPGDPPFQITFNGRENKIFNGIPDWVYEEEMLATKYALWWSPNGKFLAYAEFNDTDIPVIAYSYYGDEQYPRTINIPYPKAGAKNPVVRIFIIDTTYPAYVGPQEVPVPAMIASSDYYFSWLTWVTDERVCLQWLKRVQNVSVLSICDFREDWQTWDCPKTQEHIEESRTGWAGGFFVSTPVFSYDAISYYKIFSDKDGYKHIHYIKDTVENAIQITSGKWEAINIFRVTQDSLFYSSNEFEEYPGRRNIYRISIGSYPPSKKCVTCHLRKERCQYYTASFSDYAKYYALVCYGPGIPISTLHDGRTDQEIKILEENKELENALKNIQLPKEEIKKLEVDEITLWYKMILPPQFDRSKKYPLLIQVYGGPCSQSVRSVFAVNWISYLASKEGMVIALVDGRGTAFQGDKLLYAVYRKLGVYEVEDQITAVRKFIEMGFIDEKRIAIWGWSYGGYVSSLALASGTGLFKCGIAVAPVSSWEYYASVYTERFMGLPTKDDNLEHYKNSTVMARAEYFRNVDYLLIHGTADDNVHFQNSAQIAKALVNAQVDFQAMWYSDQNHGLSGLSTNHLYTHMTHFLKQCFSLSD
In words: BLI (Gator), biotinylated FAP on streptavidin sensor.

B1: 872-5 (antibody, V domains shown)
VH: EVQLVESGGGLVQPGGSLRLSCAASGFTFRGYIMSWVRQAPGKGLEWVSWISPEGSRTGYADSVKGRFTISRDNSKNTLYLQMNSLRAEDTAVYYCARLQYGTWFDYWGQGTLVTVSS
VL: DIQMTQSPSSLSASVGDRVTITCRASQSISSYLNWYQQKPGKAPKLLIYAASSLQSGVPSRFSGSGSGTDFTLTISSLQPEDFATYYCQQATLLLPTFGQGTKVEIKR
One may read the Kd as the concentration at which binding is half-saturated. As a reminder, the koff is a measure of how fast the partners let go of each other. As usually defined, the kon is the rate constant with which the complex forms. With B1, the dissociation constant Kd was 6.6 nM, the koff worked out at 0.0028 s⁻¹ and the kon was 420000 M⁻¹ s⁻¹.

B2: 872-70 (antibody, V domains shown)
VH: EVQLVESGGGLVQPGGSLRLSCAASGFTFSRYSMSWVRQAPGKGLEWVSYITSTDGTTDYADSVKGRFTISRDNSKNTLYLQMNSLRAEDTAVYYCARSQYGRYYSPDYYFDYWGQGTLVTVSS
VL: B1 VL with A91S, T92R, L93T, L94S, L95P, P96Y
As to B2, the Kd was under 1 nM and the kon is 110000 M⁻¹ s⁻¹.

B3: 872-59 (antibody, V domains shown)
VH: EVQLVESGGGLVQPGGSLRLSCAASGFTFTSYAMSWVRQAPGKGLEWVSSIYSWYGTTSYADSVKGRFTISRDNSKNTLYLQMNSLRAEDTAVYYCARTISYSQYAYGYSFDYWGQGTLVTVSS
VL: B1 VL with T92F, L93T, L94S, L95P, P96R
Consider B3, for which the Kd was found to be 15.5 nM, the koff came out at 0.0056 s⁻¹ and the kon is 360000 M⁻¹ s⁻¹.
